The values that follow come from paper PMC7076015 (2020).

Sequences and labels used below:
B1: Flag-myc-hnRNP R (wild type) [not stated] / HA-KPNA7 [human] (parent complex)
chain 1: MANQVNGNAVQLKEEEEPMDTSSVTHTEHYKTLIEAGLPQKVAERLDEIFQTGLVAYVDLDERAIDALREFNEEGALSVLQQFKESDLSHVQNKSAFLCGVMKTYRQREKQGSKVQESTKGPDEAKIKALLERTGYTLDVTTGQRKYGGPPPDSVYSGVQPGIGTEVFVGKIPRDLYEDELVPLFEKAGPIWDLRLMMDPLSGQNRGYAFITFCGKEAAQEAVKLCDSYEIRPGKHLGVCISVANNRLFVGSIPKNKTKENILEEFSKVTEGLVDVILYHQPDDKKKNRGFCFLEYEDHKSAAQARRRLMSGKVKVWGNVVTVEWADPVEEPDPEVMAKVKVLFVRNLATTVTEEILEKSFSEFGKLERVKKLKDYAFVHFEDRGAAVKAMDEMNGKEIEGEEIEIVLAKPPDKKRKERQAARQASRSTAYEDYYYHPPPRMPPPIRGRGRGGGRGGYGYPPDYYGYEDYYDDYYGYDYHDYRGGYEDPYYGYDDGYAVRGRGGGRGGRGAPPPPRGRGAPPPRGRAGYSQRGAPLGPPRGSRGGRGGPAQQQRGRGSRGSRGNRGGNVGGKRKADGYNQPDSKRRQTNNQQNWGSQPIAQQPLQQGGDYSGNYGYNNDNQEFYQDTYGQQWK
chain 2: not shown

In this assay the parent is B1. Kind of assay: co-immunoprecipitation (HA-IP, Flag western blot quantified); HEK293T(HA-KPNA7) cell extracts; input 2%, IP 30%; parent: 1. (In general: In western blotting, separated proteins are transferred to a membrane and probed.)
For chain 1 K572A, chain 1 R573A, chain 1 K574A, the ratio to parent amounted to 0.21. Then chain 1 K414A, chain 1 K415A, chain 1 R416A, with 0.43; and chain 1 K584A, chain 1 R585A, chain 1 R586A, with 0.2.
